Our source for the Kd values is paper PMC4259493.

As usually defined, the Kd is the concentration at which binding is half-saturated. A higher Kd goes with a looser complex.

Read-outs that look alike come from different tables or passages of the source.

Holding throughout (test): MST
Assay [1] concerns the target α-actinin-2 wild-type, full length (human) (UniProt P35609).
The target of assay [2] is α-actinin-2 calmodulin-like domain (CAMD, EF1-4) (human).
In assay [3] the target is α-actinin-2 wild-type, full length (human) (UniProt P35609). This is another data set of the same source.
α-actinin-2 wild-type, full length (human), sequence (P35609 whole entry, the tested form may be a part): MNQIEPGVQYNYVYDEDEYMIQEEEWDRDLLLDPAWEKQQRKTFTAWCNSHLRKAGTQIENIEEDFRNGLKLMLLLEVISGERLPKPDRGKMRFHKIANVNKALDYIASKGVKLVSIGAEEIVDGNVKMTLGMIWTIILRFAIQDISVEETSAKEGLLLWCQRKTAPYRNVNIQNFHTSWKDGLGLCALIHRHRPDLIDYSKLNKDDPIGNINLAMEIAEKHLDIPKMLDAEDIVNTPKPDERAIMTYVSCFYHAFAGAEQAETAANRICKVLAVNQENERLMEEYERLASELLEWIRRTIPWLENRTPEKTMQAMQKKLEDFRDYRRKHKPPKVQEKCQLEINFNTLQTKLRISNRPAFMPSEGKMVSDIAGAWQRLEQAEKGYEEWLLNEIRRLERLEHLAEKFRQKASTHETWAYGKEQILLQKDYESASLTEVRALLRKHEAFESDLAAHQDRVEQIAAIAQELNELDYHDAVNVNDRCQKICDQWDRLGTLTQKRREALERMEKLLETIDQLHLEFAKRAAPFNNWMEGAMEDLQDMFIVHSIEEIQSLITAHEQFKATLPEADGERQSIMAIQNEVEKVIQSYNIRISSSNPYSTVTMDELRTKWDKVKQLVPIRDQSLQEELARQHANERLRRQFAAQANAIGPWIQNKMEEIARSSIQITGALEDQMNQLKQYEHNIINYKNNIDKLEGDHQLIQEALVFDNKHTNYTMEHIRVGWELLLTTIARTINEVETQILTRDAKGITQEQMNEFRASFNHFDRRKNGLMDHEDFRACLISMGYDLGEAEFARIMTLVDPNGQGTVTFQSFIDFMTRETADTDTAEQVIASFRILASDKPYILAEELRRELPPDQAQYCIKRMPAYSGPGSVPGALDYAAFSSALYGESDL

α-actinin-2 calmodulin-like domain (CAMD, EF1-4) (human), sequence (P35609 whole entry, the tested form may be a part): as above
titin Zr-7 construct (amino acids Lys 692 - Arg 740), sequence (Q8WZ42 692-740): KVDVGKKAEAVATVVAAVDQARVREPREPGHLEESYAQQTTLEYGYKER

Turning to “titin Zr-7 construct (amino acids Lys 692 - Arg 740) (from UniProt Q8WZ42 692-740) (domain or fragment)”, the Kd in assay [1] was 2900 nM; in assay [2], 240 nM; in assay [3] it was 380 nM.
